In this assay the target is IL-1 receptors on fibroblasts (human) (UniProt P14778). The assay is described as follows: cell-based or functional assay.

From patent publication US20060183161A1 come the findings set out here.

A value given as a limit tells only on which side of the number the result lay.

Chain of UniProt P14778 (P14778 18-569): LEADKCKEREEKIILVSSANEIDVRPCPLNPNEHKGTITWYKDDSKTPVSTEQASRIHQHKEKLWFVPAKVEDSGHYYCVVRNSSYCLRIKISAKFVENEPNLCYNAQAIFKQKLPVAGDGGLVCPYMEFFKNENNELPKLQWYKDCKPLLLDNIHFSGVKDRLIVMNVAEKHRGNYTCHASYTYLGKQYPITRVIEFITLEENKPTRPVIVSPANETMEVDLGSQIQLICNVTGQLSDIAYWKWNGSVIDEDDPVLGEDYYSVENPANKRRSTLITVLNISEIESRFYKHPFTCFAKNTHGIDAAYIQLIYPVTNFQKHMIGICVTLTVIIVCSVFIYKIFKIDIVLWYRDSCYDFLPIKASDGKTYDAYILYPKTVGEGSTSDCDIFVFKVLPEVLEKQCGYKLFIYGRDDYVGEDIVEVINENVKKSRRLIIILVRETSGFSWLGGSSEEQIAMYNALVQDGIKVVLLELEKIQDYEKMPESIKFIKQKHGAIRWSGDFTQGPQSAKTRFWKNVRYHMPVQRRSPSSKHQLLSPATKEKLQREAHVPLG

Take “recombinant human IL-1 receptor antagonist (rhIL-1ra) (from UniProt P18510 28-177) (ligand)”: the IL-6 production from fibroblasts in response to 0.1 nM IL-1b (ELISA) is 95 % reduction. “rhIL-1L1 Form B (from UniProt Q9UBH0 1-155) (ligand)” yielded an IL-1-like activity: IL-6 secretion by fibroblasts and endothelial cells (ELISA) (% of the activity of 0.1 nM IL-1b) of less than 1.
